The text below walks through data of patent US12134635 (SONNET BIOTHERAPEUTICS, dated 2024).

One test deals with IL-18 binding protein (UniProt O95998). In words: Biacore T200 SPR, CM5 chip, IL-18BP as immobilized ligand, hIL-18 titrated, 25 C. (In general: In SPR one partner is held on a chip, and binding of the other changes the refractive index at the surface.)
In another test the target is T1, IL-18 receptor (UniProt Q13478 19-541; O95256 20-599, limits assumed).
T1 sequence (looked up) 1: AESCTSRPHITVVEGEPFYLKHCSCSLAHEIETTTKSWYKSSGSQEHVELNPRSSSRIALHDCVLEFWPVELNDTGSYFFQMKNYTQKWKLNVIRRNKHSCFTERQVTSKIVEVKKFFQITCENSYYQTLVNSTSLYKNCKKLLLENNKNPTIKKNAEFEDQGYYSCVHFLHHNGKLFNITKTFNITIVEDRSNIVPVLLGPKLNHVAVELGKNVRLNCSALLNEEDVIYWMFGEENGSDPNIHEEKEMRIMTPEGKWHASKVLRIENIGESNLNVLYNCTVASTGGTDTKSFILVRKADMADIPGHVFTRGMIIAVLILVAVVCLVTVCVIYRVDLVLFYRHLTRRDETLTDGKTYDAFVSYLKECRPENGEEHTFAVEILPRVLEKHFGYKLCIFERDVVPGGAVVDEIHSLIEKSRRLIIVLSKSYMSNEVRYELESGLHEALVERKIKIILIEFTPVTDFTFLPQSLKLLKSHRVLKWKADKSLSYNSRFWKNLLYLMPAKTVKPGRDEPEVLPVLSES
T1 sequence (looked up) 2: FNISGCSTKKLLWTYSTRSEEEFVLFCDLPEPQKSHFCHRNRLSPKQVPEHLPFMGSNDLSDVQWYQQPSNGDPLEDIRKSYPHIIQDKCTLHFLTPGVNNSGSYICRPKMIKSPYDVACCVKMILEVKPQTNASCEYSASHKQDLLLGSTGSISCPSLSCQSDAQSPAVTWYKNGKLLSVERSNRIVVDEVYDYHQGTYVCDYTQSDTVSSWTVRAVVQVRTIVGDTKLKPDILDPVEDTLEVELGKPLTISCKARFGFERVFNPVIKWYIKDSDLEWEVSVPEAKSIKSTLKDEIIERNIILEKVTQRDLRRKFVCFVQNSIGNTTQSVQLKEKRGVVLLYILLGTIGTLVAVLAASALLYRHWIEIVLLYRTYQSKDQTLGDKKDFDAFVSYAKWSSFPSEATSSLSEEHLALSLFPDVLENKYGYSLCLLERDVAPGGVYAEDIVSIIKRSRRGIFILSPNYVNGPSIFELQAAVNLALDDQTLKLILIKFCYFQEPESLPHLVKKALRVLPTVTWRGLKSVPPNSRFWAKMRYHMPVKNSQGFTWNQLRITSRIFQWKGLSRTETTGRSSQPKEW
In words: cell-based or functional assay.

As for “Recombinant hIL-18 (NIBSC wildtype) (from UniProt Q14116 37-193) (ligand)”, in the test with IL-18 binding protein, the Kd – broadly, the constant that tells how readily two partners part at equilibrium – worked out at 0.056 nM.

B1: hIL-18 Variant A (ligand)
chain: WFGKLESKLSVIRNLNDQVLFIDQGNRPLFEDMTDSDSRDNAPRTIFIISYYKDSQPRGWAVTISVKSEKISTLSSENKIISFKEMNPPDNIKDTKSDIIFFQRSVPGHYNKMQFESSSYEGYFLASEKERDLFKLILKKEDELGDRSIMFTVQNED
Turning to B1, in the test with IL-18 receptor, the “EC50 (read off the curve), HEK-Blue IL-18 reporter, OD at 640 nM” value was approximately 0.03 ng/mL.
